The text below walks through data of paper PMC3409459, “Absorption, distribution, metabolism and excretion of peginesatide, a novel erythropoiesis-stimulating agent, in rats” (Xenobiotica; the Fate of Foreign Compounds in Biological …, 2011).

This data set can be described thus: Radioactivity in plasma, skin and eyes of pigmented vs albino rats (affinity for melanin). Type of data set: in vivo, male Long Evans (pigmented) rats. Conditions: single IV 5 mg·kg^−1 [^14C]-peginesatide; through 60 days; LSC; n=3 per time point. On the procedure: Male Sprague-Dawley (albino) rats (n = 21; three per time point) were administered a single IV dose of 5 mg·kg^−1 [^14C]-peginesatide (27.5 μCi/kg) and tissue concentrations of radioactivity determined at 0.25, 6, and 24 h, and 7,14,30 and 60 days following dosing. Similarly, male Long Evans (pigmented) rats (n = 21; three per time point) were administered a single IV dose of 5 mg-kg^−1 [^14C]-peginesatide and plasma, skin, and eye concentrations of radioactivity were measured at the various time points through 60 days after dosing. At each time point, blood was collected, the animals sacrificed, and tissues excised. Tissues collected from the Sprague-Dawley rats included blood, plasma, adrenals, bone marrow, brain, eyes, fat, femur, Harderian glands, heart, hypophysis, intestine, kidneys, lungs, liver, pancreas, skeletal muscle, skin, spinal cord, spleen, stomach, submaxillary glands, testes, thymus, thyroid gland, and urinary bladder. Plasma, eyes, non-pigmented skin, and pigmented skin were collected from Long Evans rats. All tissue samples were measured for radioactivity by LSC following combustion. […] The concentration of radioactivity in the blood, plasma, and tissues was calculated and expressed as ug equiv·g^-1 or mLbased on the LSC counts and the specific activity of the dosing solution.

On to Peginesatide, for which the “association with melanin (kinetics in plasma, skin and eyes of pigmented vs non-pigmented rats)” value is “neither peginesatide nor the other radioactive components associated with melanin”.
